According to paper doi:10.1101/2025.09.09.675193 (bioRxiv, 2025):
Square brackets hold non-standard residues; d marks the D form. Ends that are not written are not given here. * marks the point of attachment. 5FAM = O=C1OC2(c3ccc(O)cc3Oc3cc(O)ccc32)c2ccc(C(=O)*)cc21; pT = C[C@@H](OP(=O)(O)O)[C@H](N)C(=O)O; pS = N[C@@H](COP(=O)(O)O)C(=O)O

T1: DDIAS OB fold WT (Homo sapiens, UniProt Q8IXT1 1-168)
T1 sequence: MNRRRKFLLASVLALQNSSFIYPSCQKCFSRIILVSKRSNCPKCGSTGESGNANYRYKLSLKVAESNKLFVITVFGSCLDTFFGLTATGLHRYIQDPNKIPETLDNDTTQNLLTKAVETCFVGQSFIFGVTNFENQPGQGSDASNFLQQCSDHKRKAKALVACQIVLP

T2: DDIAS OB fold C25A/C28A (Homo sapiens, UniProt Q8IXT1 1-168, C25A;C28A)
T2 sequence: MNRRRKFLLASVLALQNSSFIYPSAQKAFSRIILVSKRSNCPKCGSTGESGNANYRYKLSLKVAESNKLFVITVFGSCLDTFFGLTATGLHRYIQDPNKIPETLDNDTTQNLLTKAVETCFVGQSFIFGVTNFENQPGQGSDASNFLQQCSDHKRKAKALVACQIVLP


Experiments:
[1] = biological target: recombinant TOPBP1 BRCT domains 4+5 (residues 548-741) (human, UniProt Q92547 548-741); assay: fluorescence polarisation
[2] = biological target: recombinant TOPBP1 BRCT domains 7+8 (residues 1263-1495) (human, UniProt Q92547 1263-1495); assay: fluorescence polarisation
[3] = biological target: T1, DDIAS OB fold WT; assay: EMSA
[4] = biological target: T2, DDIAS OB fold C25A/C28A; assay: EMSA

recombinant TOPBP1 BRCT domains 7+8 (residues 1263-1495), sequence (Q92547 1263-1495): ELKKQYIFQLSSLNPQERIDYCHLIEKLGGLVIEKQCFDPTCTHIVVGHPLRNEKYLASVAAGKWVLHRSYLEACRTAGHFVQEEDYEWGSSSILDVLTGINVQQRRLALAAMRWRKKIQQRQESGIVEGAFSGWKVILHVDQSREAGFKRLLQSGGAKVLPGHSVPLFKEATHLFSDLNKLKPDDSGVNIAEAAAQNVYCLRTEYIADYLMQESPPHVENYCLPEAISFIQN
recombinant TOPBP1 BRCT domains 4+5 (residues 548-741), sequence (Q92547 548-741): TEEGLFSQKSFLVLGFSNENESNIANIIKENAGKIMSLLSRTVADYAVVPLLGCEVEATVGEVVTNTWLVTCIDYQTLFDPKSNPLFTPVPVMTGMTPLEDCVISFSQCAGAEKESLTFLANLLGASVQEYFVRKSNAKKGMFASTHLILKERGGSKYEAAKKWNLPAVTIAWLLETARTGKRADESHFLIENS

| Binder | binding result [2] | binding result [3] | further results |
| --- | --- | --- | --- |
| 5FAM-GSGETDSDEWVPP[pT]TQK (also: phosphothreonine at Thr868 (position not mappable)) [DDIAS-pT868 peptide, 5-carboxy-fluorescein labelled] |  |  | binding result [1]: binds |
| GATGAGATTGAGGCTGGCCTGCAGGCATGCAAGCACCTGG (ssDNA) [Cy5 40-nt ssDNA] |  | binds | binding result [4]: no binding |
| Cy5 40-bp dsDNA (dsDNA) DNA 1: GATGAGATTGAGGCTGGCCTGCAGGCATGCAAGCACCTGG DNA 2: CCAGGTGCTTGCATGCCTGCAGGCCAGCCTCAATCTCATC |  | no binding |  |

More lines, main results first:

| binding result [2] | Binder | binding result [3] | further results |
| --- | --- | --- | --- |
| binds | 5FAM-GSGEGSYDA[pS]ADLFDD (also: phosphoserine at Ser676 (S6 or S10)) [DDIAS-pS676 peptide, 5-carboxy-fluorescein labelled] |  |  |
| binds | 5FAM-GSGETRSAW[pS]PELFS (also: phosphoserine at Ser993 (position not mappable)) [DDIAS-pS993 peptide, 5-carboxy-fluorescein labelled] |  |  |
